These sequences were tested on Saccharomyces cerevisiae (assay: transcriptional activation domain activity (GFP:mCherry ratio, weighted mean of sorted bins, harmonized to initial dataset scale) (arbitrary fluorescence ratio units); higher = stronger transcriptional activation). Details: beta-estradiol 1 µM; induction time 4 h.
Summary of the method: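 Sorting into 8 bins by GFP:mCherry ratio followed a 4-hour hold at 30 °C after cultures were diluted 1:5 into SC with 1 uM beta-estradiol. The yeast diploids carried a GFP reporter and had barcoded protein tiles, fused to an estradiol-inducible synthetic transcription factor, integrated at URA3. Barcodes were then sequenced, and tiles with under 50 reads were removed. Activation activity is the read-weighted mean of bin median fluorescence, averaged across barcodes and linearly mapped onto the initial dataset scale.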

Sequence	transcriptional activation domain activity
STATESGLAARSKDQIFCIPVPGQPWVDVRLRTLSESINSLLLLATLIKRCPV	59300
STDALLARLVGHLHINPVSQKLVVAFDKIATCLQEVRACIVQRILPFAQRYKQ	62400
STFGKYVHCRLLEGNTGMKIPQAAVIALIFRFLEKLVNTRLAVISRRWAMVTL	67000
STGGARKGSAAPSKTSSSNISGRDKEKSRSKEKLGSQSALAAGSTPAPKAAAA	47900
STGLKPQDPSSDGLRKLALLNILLSGEEDVVSTIPAQRLVFLVKHLLECLKSD	24800
STHRIRCRNAEEPGGRARCRLVVGRRAPAGARDEVPSHFSEEELVASVVGVVV	73000
STHSVSLLVVWALRRIRVNLVKLAGITYMVPFPLLLVLVMIGSSSYLSWIFWI	64900
STIHNLAELVFLEELCGFCCFSMRFVVFLDLFGTIILPATCVYIGYLIYVIAT	44600
STIHNLFEVVLLPDLCGFCCFSMRFVVLVDLVGTLTLPVTVVYLIYLIYVIAS	54400
STKVLLRVFIPVAGYFWISLNYSLVSLAFHVKFNNYFGNIGFFIWWMLNWLTM	57300
STLQLASSFDITVNGPPVLCQGISITACASSSLVVALSWISCMIMLMYFFSLL	52800
STLVFLKLYSSLMLGTCLTSILCFSLPDFFPGKRGFAIGLCLYHSICSTVLFQ	63900
STMHSNIGYIATLCLNLTLLLPLKDHPMVNNYVLVLVNSYWVLTGIWWFIFQQ	35000
STPAAKPTPEPGQQPRKRGRPRIIRDDPPEGGGPPAAKKAKRGRKPKVVAPPA	27400
STPAPTTAAGGKKEAEKPEEKSEEKPEEKPAEKPAEKPAEKPAEVKPEEKAIQ	25400
STPSAFGAQPTQTTGAFGQPAQTSAFGAQPATGGFGNTGSAFGQARPSAFGST	16900
STQCSCEDESCPCVNCLIHRSEEELNSYIQQSGVPLTNIGEAQITDKMMDYLD	56900
STRNYKLYIGNTVFFCGGRFLTSRAFWAFGLSLFLINMPAILFIIFSCPWLWY	55900
STSIRWEIFYARFFIMMLFYTIVGLFLTIACFSLRYHLFIWTVFSPKLLFFFV	48800
STTKSICYVLRHLMITYVFYLSATGIDDLTVLIGNHSHNMIRTIVRSALWISY	39900
STTLPAVDNNNLFDAVASPLADPLCDDIAGNSLPFDNSIDLDNWRNPEAQSGL	71400

Sequence	transcriptional activation domain activity
STTRQQRASLPLIHDIESFANDSVMANPLSDSASFLSEENEDDAFGALNYNSL	51500
STTSDGAPGSEVPLKRRPGRPKGSKTKKRKIDTAPVPIAAAGTQPAASSTTAP	35700
STTYYVLSLITFSSFPSIMVSYYSLLFSFFFISLCFLFPLPFVSSLFSHLILF	40300
STVHNLCELVFLPELFGFCCFSMRFFVFIDLLGTLILPATVVYLLYLIITVAT	62500
STVHNLVELMPLQQLCGFCCFSMRFVVFLDLLSTVVAPVIVVYIGYLIYILAY	56100
SVASEKGADDSAEEDHEHEHRHKKRRHREHREREHRSSRHKHRSSRRHAEEVD	21000
SVASMNSNYLLPVNSHGYKHISNLDELDDLLSLTYSDNNLLSASNNSDFNNSN	88400
SVCHRAGEGDEEVEDEEEGEESDEEEEDGDDEKTADGGRAASARKGRDAGAGA	13000
SVCNDGNAGDFLYDCFGEFNNQPFNWDVLSPRVAANPYYSFDDFGSSLFILFQ	106000
SVEDAADTTVSTDLKAADDATTEAAADDDAPRKKHKKSKSKKDKHRRAAADAE	11600
SVEVEMEDAPKPKRRGRPPGSGKKKAPAGEDAAAAAPEKKKRTPAKKASAGSA	42700
SVGASSGSGSGSGKRRGEEGEEGDEGEEGEEGDEGEEGDEEEGVEELVQGEGQ	7800
SVKHIITLFDDVRQNLAHAGLVALLLAQPHMIVLLTDVWLHMFRYLSAFEITI	52100
SVKTKAAGKGKPKTTNDKATKSSEPRKAAKVSDDETKPTSNGAASAKAGGERQ	23600
SVLHTMYVVAIKDSSAWYGDSPADLCMIGFWNLVIVWLKLLIPWRFFRLWAIL	55900
SVMKTLLDERRTSGTQPTTAPVAAEEPRLENVALENFVSIGWKLLDDSELGWY	71200
SVRHWELRVRAKYGRVLCRFLAQIEFDPFLLSDSSKRAILTVLRAVADIMVEC	42400
SVSRDRGAFEWAGDNLMTVFCQPYRLVDPEMWCLLYDVLRFNACCRSIIATPY	63900
SVSRLHAKIEYEEEEERFVLVVVGRNGAWVDGVWSGAGSRVPLCERSQIQIAS	45800
SVSRLHAKIEYEEENERFVLVVLGRNGAWVDGIWSGSGSRVPLGPRSQIQIAT	31600
SVTSEAIQVCVAARAREGEANRAVRNVIAEALRVPKSNVQVAKGLKSREKTLI	43300

Sequence	transcriptional activation domain activity
SVTSTEELEITVETLRELAAHPAVIKGKQCRELRGAVHEFRQACTTGVNAAGT	53600
SVVKFIEEYQAYFNTSYEVFLLLYISFILVTTLWCTSLIIYRILTVHLIEVLV	29800
SVVLGVLHMSLSICTQVPNFIHFGRPSSIITEFLPQILFLHCLFGYLVFMIIY	79100
SVYALVHFGAFYRSSHGPIRMLALHIQAFYNLCSLLFSWFAIANLWLTFSIII	67600
SVYCLLLILFIPYPFSDVFAKCKHASLEGLACGDFPHNQLSIYLAAILCLLIA	49800
SVYLHALKKVITTWKGEVLPIILARKIQWTEWEIKDLEYEITHFYVKTFFMTI	47900
SWFDIDEENGDVISRLEWYHLVQMSLVHATILIWWTTGKVLININVSMAVRCG	54100
SWFIHFYILSLSCTVFWAVQFVIDGTVLEVIIKNQLARCTSSMTLSQVLLAWF	50300
SWFIYSYDKEWIFLWHIPFPYPPIRTPSIPWVLYGLSVRFWSFISLLICNFFC	63300
SWLRGYEVFKLQVSSTMIKCLRGMLCFIPVVCLGPNIVLLLGLPIQTQVKWFL	61100
SWNAPSLTNSWDSPPGNRTGAVTIGDESINGSEMPDFSLDLVSNDRQTGLEAL	32800
SWRDPSYIYSKIGLCSTASLFLGLSFLNQPVSLQGVQNQIFSFFMLLVIQVFM	60200
SWRRLPLAMLNFSRAVTFRWTIIIARTYSLNLADVLLTGMYITILFTWNFHNS	40000
SYFIAAIINWEMSGFFLFSYEYVHKDLNLGCSNLYFTWYALFKEYGAPLVPMS	45100
SYINTHNSNDNNNLMGSQARSNSQTPTASTIYEEAESQSSYLDDMFRTSQGGR	43100
SYITYYQSRQFVMIPWYFYFIIITCVLTIIFVMAVCFLFYIHLLLPILVMLWS	35400
SYLHSFLLSFLYPPSPLVSSPFTLLCSFPYFFSFLSFFFSFSFPYSSSCFVFH	45000
SYQHLHSVMKVINCLNLMLVVCYFSDVRYLKVLVKFWNELHNDVVSRNKLIIV	42300
SYSLNTSLCQAFWHVTWRLTPPLAVFLPINPFLCLHLHFTCTLFFLLSLVMLQ	58400
SYWLTIQRYGGWFPNRVQSSSTSFSVFLHFSNPFWLHGWWLLCCLLRLASFVL	79900
SYYNLLCFSLCVRVCVCFVLLIILSFVSLLCFSFLLCFHCVLPFFFFFVFFFF	49200

Sequence	transcriptional activation domain activity
TAALIELILAIAFRVTMYHLALYGSNVLFRYMRLSNELSNRYANCLVATLNAR	23200
TAANGKKSKGNKGGNAAGANANANAKANGNTKNGNGNSRNGNNKRMRALGSAM	25700
TAAPYHKLAYHPALSPKISLGFWPFQHILTFLDYKEYVLQWTLLVTVQIPWFN	64700
TAATVPSATRAVVSATCRATALRVRSATTAAVTTTSPATARLPARPAPATTAS	34000
TACVAIINIKCLFLEMHVWSVLNYAFFFISYGGWWVWTIAQSLIFGHQSIYFV	34700
TADTAAASTSQPKLAQDQQQATDGENSEKRKPGRPRGSRNRKPRASVGSATKA	37800
TAGAATNNKRNRLKVNGKVFTRLDVIGRGGSSRVYRVMAENSKIFALKRVSLD	35800
TAIVTVISTVMAIATVTATGIMSIIDTMSTTAIITAIAMDMVTESIMVITAIT	87500
TAKLLLEDSMKKKRQEIQQLEQATHQRSNLETTHLLDIDWDALLDPSDTLNFM	90000
TAPAPEAAAEPAPAAEAEAPAAETAEAPKEEAKDEKKPEKEKKVSRRLSSRVT	32400
TAPFPILEDQCPALNLDRSNNDLLLQNNISFPKGSDLQAIQLTPISGDYSTYV	92600
TAPSATSAAALVTSPATALRVAMVVSRAAAPAAATTVPARARPATPAVVSATC	51300
TARVSEAKPARGRPSSAKAESPAVEAAPAVKKRGRGRPSKTKPETEEEEEAVP	39600
TASSGTRATTTSSAPRSRRTHTTPLRAAQARAPRCRTARARTSCGSTPTARRS	23800
TASTGTEARNAETTTRRVRSGIVNRRSHAKSRTGCRTCKRRRIKCDESRPSCR	22400
TATARVRAVGENQKLEIVLGESDGTEEECQCGRRNKNANVKKYVQGVRAGIHY	35000
TATKPTESKPVETKTDAAAAGKSTTPANGSGSASATKPAETASTTEKKKKNRL	30400
TATVQYSERRRGTVTAFNDEKGYGFAADSDPASLGNKEVLVHHKKIKSTARHK	24200
TAVLMQLINLTVFICLASFGSLVFATWLPLIFQYYAIHLRDLLLHDASLIVNW	39100
TAVSQLERAIARILLIRYEQDIARLFSTRLYSVALVHLPTFVMRCAALAGPGW	50400

Reference: the supplement of paper PMC12636428
